Target: zebrafish VPS26 (zebrafish, UniProt Q6TNP8 1-327)
Experiment: cryo-EM structure; cryo-electron tomography with subtomogram averaging of coats reconstituted on PI(3)P- and DGS-Ni-NTA-containing liposomes: 2.5 uM core trimer, 3.5x molar excess of adaptor (SNX3 or Grd19) and the corresponding His-tagged cargo peptide (Wls or Kex2), liposomes 0.16 mg/ml, 4 hours at 22°C in buffer A (20 mM Hepes-KOH pH 7.5, 200 mM NaCl, 1 mM TCEP)
Details: both partners purified

B1: His6Wls (peptide, UniProt Q6DID7 493-541, looked up)
chain: APSHKNYGEDQSNGDLGVHSGEELQLTTTITHVDGPTEIYKLTRKEAQE
notes: Wntless (Wls), residues 493 to 541 (C-terminal domain), UniProt Q6DID7; Cloned in pRSFDuet-1; attached to the liposome membrane (liposomes contain DGS-Ni-NTA); also called Wntless cargo peptide; Wls cargo tail peptide; source: E. coli BL21(DE3), purified (Ni-NTA, Superdex Peptide 10/300)
binding result: binds

From PMC7990337, “Architecture and mechanism of metazoan retromer:SNX3 tubular coat assembly” (Science Advances, 2021)
